Assay results: publication PMC10186271, “The ABA-induced NAC transcription factor MdNAC1 interacts with a bZIP-type transcription factor to promote anthocyanin synthesis in red-fleshed apples”
Numbering of substitutions follows the chain as printed.

B1: MYB10 hot probe (dsDNA)
DNA 1: TTTAATAAAAAGGACCCTGAACACGTGGGAACCGGCCCGTTTGTAA
DNA 2: TTACAAACGGGCCGGTTCCCACGTGTTCAGGGTCCTTTTTATTAAA
B2: MYB10 mutant probe (dsDNA)
DNA 1: B1 DNA 1 with C22T, A23T, C24A, G25A
DNA 2: B1 DNA 2 with C22T, G23T, T24A, G25A
B3: UFGT hot probe (box 1) (dsDNA)
DNA 1: GTGATTGGCTTCTGATGTTGACACGTGTCGCGCTGTGGTTGGCTTC
DNA 2: GAAGCCAACCACAGCGCGACACGTGTCAACATCAGAAGCCAATCAC
B4: UFGT mutant probe (box 1) (dsDNA)
DNA 1: B3 DNA 1 with A23C, C24T, G25C
DNA 2: B3 DNA 2 with C22G, G23A, T24G

Experiments:
MdNAC1 [1] = biological target: T1, MdNAC1 (Malus domestica, UniProt D9ZJ87 1-280); test: EMSA; unlabeled competitor decreased binding; Thermo Scientific Pierce EMSA kit protocol; buffer, salt, pH and temperature not stated; cold probe 100x; details: protein: recombinant; tags: His (pET32a); chain copies: 2; label: 3' biotin; blunt
T1 sequence: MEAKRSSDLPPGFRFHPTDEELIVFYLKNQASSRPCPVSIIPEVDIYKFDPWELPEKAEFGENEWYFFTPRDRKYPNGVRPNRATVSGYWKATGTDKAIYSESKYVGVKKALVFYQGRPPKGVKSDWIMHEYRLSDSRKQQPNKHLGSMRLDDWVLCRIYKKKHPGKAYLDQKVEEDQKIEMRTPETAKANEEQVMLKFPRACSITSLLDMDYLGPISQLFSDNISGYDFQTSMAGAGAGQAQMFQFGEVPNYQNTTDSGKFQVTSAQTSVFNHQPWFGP

MdNAC1 [2] = biological target: T1, MdNAC1; test: EMSA; Thermo Scientific Pierce EMSA kit protocol; buffer, salt, pH and temperature not stated; cold probe 100x; details: protein: recombinant; tags: His (pET32a); chain copies: 2; label: 3' biotin; blunt

Row | Binder | binding result (MdNAC1 [1]) | binding result (MdNAC1 [2])
1 | B1 | binds | –
2 | B2 | – | no binding
3 | B3 | binds | –
4 | B4 | – | no binding
